Measured values as given in the supplement of paper PMC9732359.
± gives the uncertainty stated by the source.

Experiment: protein stability index of a GFP-peptide fusion (yeast GPS) (PSI 1-4); higher = more stable; sorted into four equal gates, so the index is relative within each strain
In short: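 Each library plasmid carries Cherry plus GFP with a tiled 17-residue yeast protein peptide fused downstream, and the pooled library was carried in yeast. Mid-log cultures in leucine-free medium were sorted into four equal gates by GFP/Cherry ratio. Reads from Illumina sequencing of PCR-amplified plasmids from each gate were assigned to strains by barcodes. Per peptide, the protein stability index was computed as the summed products of gate read frequency and gate number.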

Row | Sequence | protein stability index (doa10∆) | protein stability index (pdr5∆) | protein stability index (san1∆) | protein stability index (ubr1∆)
1 | MNFNTPQQNKTPFSFGT [YJL041W/NSP1] | 3.15 ± 0.057 | 3 ± 0.051 | 2.92 ± 0.061 | 2.95 ± 0.05
2 | TVQNEILGDLGKEFGTT [FAS2] | 3.03 ± 0.2 | 2.34 ± 0.25 | 2.57 ± 0.093 | 2.9 ± 0.16
3 | RGFIKSEGSGSSLVQKG [RPC53] | 3.37 ± 0.1 | 3.34 ± 0.09 | 3.31 ± 0.076 | 3.14 ± 0.057
4 | HSLSQAIKWDGSSGGVI [PRE3] | 3.69 ± 0.28 | 3.27 ± 0.21 | 2.67 ± 0.21 | –
5 | LTGEWSTKFDYPPMPFD [FAS1] | 2.85 ± 0.056 | 2.96 ± 0.062 | 2.85 ± 0.048 | 2.94 ± 0.037
6 | KFGLLLQVSAQERKDFL [ECM29] | 1.6 ± 0.082 | 1.5 ± 0.056 | 1.59 ± 0.2 | 1.57 ± 0.047
7 | TLIKKKQDEKKSSELEL [SMC2] | 3.24 ± 0.076 | 3.37 ± 0.071 | 3.29 ± 0.047 | 3.05 ± 0.046
8 | DSDGTRLKGDIFCVGSG [PRE2] | 2.88 ± 0.057 | 2.87 ± 0.057 | 2.93 ± 0.091 | 2.45 ± 0.061
9 | NYQYKIQELRKLLKSLL [MED7] | 1.43 ± 0.07 | 1.88 ± 0.095 | 2.28 ± 0.22 | 1.81 ± 0.072
10 | CRKCYARLPPRATNCRK [RPL40A] | 3.09 ± 0.23 | 3.71 ± 0.28 | 3.13 ± 0.14 | 2.92 ± 0.13
11 | TFGKKADVTSNIDSSAQ [YOR098C/NUP1] | 2.09 ± 0.058 | 2.23 ± 0.045 | 1.91 ± 0.11 | 2.57 ± 0.038
12 | GPGFKFVDLNEKELQNE [SRB4] | 2.64 ± 0.17 | – | – | 2.85 ± 0.14
13 | TIFKSGEIDFIKNIGKS [YML103C/NUP188] | 1.64 ± 0.069 | 2.37 ± 0.061 | 1.92 ± 0.12 | 2.51 ± 0.073
14 | LRQQQQQQDQPEQSEQP [RPN10] | 3.21 ± 0.09 | 3.28 ± 0.076 | 2.74 ± 0.081 | 3.17 ± 0.064
15 | LESTIAETQGSKVVIDS [IRR1] | 2.9 ± 0.1 | 3.03 ± 0.14 | 3.06 ± 0.12 | 2.98 ± 0.12
16 | PLITRHCYPRQLCQITC [RRP46] | 1.89 ± 0.054 | 2.02 ± 0.049 | 1.92 ± 0.095 | 2.11 ± 0.044
17 | GTYIQERNPTQRPQRRY [RPS10A] | 3.01 ± 0.051 | 3.1 ± 0.041 | 3.07 ± 0.034 | 3.14 ± 0.032
18 | VIRIPMQENDKINQERL [CSI1] | 2.42 ± 0.083 | 2.83 ± 0.085 | 2.37 ± 0.11 | 2.82 ± 0.072
19 | LVHGIFGAKMSRTLILS [SIN4] | 1.8 ± 0.063 | 1.41 ± 0.044 | 1.36 ± 0.088 | 1.65 ± 0.039
20 | KKRKAGRPRGRPKKVKL [SNF2] | – | 3.09 ± 0.12 | 2.96 ± 0.21 | 2.9 ± 0.11
21 | QDRLSDLIHKSEAFPSL [SMC4] | 3.31 ± 0.15 | 2.7 ± 0.11 | 3.07 ± 0.077 | 3.03 ± 0.088
22 | KKQVHVYRFVTENAIEE [ISW2] | 1.68 ± 0.07 | 1.77 ± 0.075 | 1.87 ± 0.12 | 1.91 ± 0.045
23 | YLLENNQVGTDELILPL [YDL116W/NUP84] | 3.18 ± 0.081 | 3.06 ± 0.11 | 3.07 ± 0.069 | 2.89 ± 0.057
24 | RHLPMYTEFIDSFIEKI [ITC1] | 2.4 ± 0.097 | 2.69 ± 0.075 | 2.85 ± 0.11 | 3 ± 0.066
25 | QGVTCLHLAVGKKWFEV [NAS6] | 2.76 ± 0.23 | – | – | 3.14 ± 0.14
26 | DTFVHVTDLSGKETIAR [RPS14B] | 2.88 ± 0.087 | 2.98 ± 0.066 | 2.83 ± 0.062 | 2.98 ± 0.058
27 | FLARVIKEKFDEFIKTH [IRR1] | 2.79 ± 0.081 | 2.83 ± 0.08 | 2.8 ± 0.059 | 2.88 ± 0.074

Row | Sequence | protein stability index (doa10∆) | protein stability index (pdr5∆) | protein stability index (san1∆) | protein stability index (ubr1∆)
28 | SQFCYVSDDESNGEVLE [RPN14] | 3.41 ± 0.22 | – | – | 3.09 ± 0.1
29 | FILADAGLEITSDNLLT [RPP1B] | 2.55 ± 0.052 | 2.77 ± 0.054 | 2.65 ± 0.076 | 2.73 ± 0.049
30 | EGNAQLVAIFGGQGNTD [FAS1] | 1.45 ± 0.067 | 1.94 ± 0.094 | 2.13 ± 0.13 | 1.05 ± 0.091
31 | YPFLLSFLGEAKSMAFL [YML103C/NUP188] | 2.18 ± 0.084 | 2.35 ± 0.067 | 2.29 ± 0.11 | 2.38 ± 0.048
32 | LGKRSILAAAHRDAYSG [PRE2] | 2.93 ± 0.2 | 3.26 ± 0.2 | 2.33 ± 0.18 | 2.85 ± 0.083
33 | QLEKKIRFVCLSNCLAN [BRR2] | 1.82 ± 0.065 | 1.32 ± 0.048 | 1.31 ± 0.099 | 1.63 ± 0.045
34 | HPPFIKYACLAIRKNGQ [SIN4] | 1.45 ± 0.042 | 1.51 ± 0.039 | 1.68 ± 0.065 | 1.42 ± 0.031
35 | DNKMDSVKEDVKNNQEL [SMC4] | 2.85 ± 0.14 | 3.02 ± 0.084 | 2.51 ± 0.17 | 3.36 ± 0.14
36 | LDEDDTNDGIERYSDKY [RPC31] | 3.32 ± 0.14 | 3.4 ± 0.12 | 3.22 ± 0.11 | 3.26 ± 0.074
37 | EQQPEQPQETEEHHEEE [RPT4] | 3.41 ± 0.084 | 3.28 ± 0.12 | 3.2 ± 0.12 | 3.44 ± 0.1
38 | WIVVLPWFWLLPLWHLL [POP1] | 2.4 ± 0.092 | 1.21 ± 0.057 | 1.14 ± 0.13 | 1.07 ± 0.046
39 | QGRFRGNLSGKRVDFSG [RPO31] | 3.36 ± 0.099 | 2.12 ± 0.11 | 2.76 ± 0.1 | 2.56 ± 0.12
40 | FTQPALTLMEKAAFEDL [FAS1] | 2.74 ± 0.1 | 2.33 ± 0.078 | 2.77 ± 0.091 | 2.9 ± 0.07
41 | RLIDLSGCENITDKTIE [GRR1] | 3.05 ± 0.068 | 3.21 ± 0.093 | 2.85 ± 0.079 | 2.88 ± 0.093
42 | KFSERRKALPKEPKKLL [DSN1] | 2.33 ± 0.069 | 2.88 ± 0.081 | 2.52 ± 0.11 | 2.87 ± 0.053
43 | NADLDVKDELMFSPLVD [RPO21] | 3.17 ± 0.047 | 3.08 ± 0.04 | 3.15 ± 0.041 | 3.31 ± 0.034
44 | AVPAATPANTNNSTSNA [SWI1] | 2.52 ± 0.06 | 2.99 ± 0.053 | 2.65 ± 0.053 | 2.96 ± 0.04
45 | RPHQSRESLIMLLEEQL [MED7] | 2 ± 0.081 | 2.37 ± 0.093 | 1.45 ± 0.19 | 2.12 ± 0.054
46 | YCHEKELTIIKNPRVTK [CSN9] | 2.55 ± 0.098 | 2.29 ± 0.18 | 2.14 ± 0.2 | 2.13 ± 0.13
47 | GISKKTRIAGVVYHPSN [RPS8A] | 2.53 ± 0.03 | 2.456 ± 0.024 | 2.41 ± 0.032 | 2.403 ± 0.021
48 | TPATIVKKPTFTFGQST [YOR098C/NUP1] | 2.84 ± 0.066 | 3.13 ± 0.074 | 3.09 ± 0.058 | 3.43 ± 0.075
49 | VLMERKDERGEGEAKQK [ITC1] | 2.94 ± 0.21 | 3.35 ± 0.24 | – | 3.07 ± 0.22
50 | PYMNHKNTSSMDFLNSM [GAL11] | 1.87 ± 0.056 | 1.69 ± 0.055 | 2.48 ± 0.089 | 3.04 ± 0.044
51 | SFGKIYVTKPMVNESDG [RPB2] | 3.12 ± 0.19 | 3.18 ± 0.14 | 3.01 ± 0.2 | 3.26 ± 0.24
52 | FIEDLAPEQQVQQFAQL [UBP6] | 2.79 ± 0.059 | 3.02 ± 0.046 | 3.04 ± 0.049 | 2.98 ± 0.037
53 | RLELLQLSPVKNSRVEL [SMC4] | – | 3.54 ± 0.25 | 3.22 ± 0.13 | –
54 | GCSKICDLSSKFNKSKA [YCS4] | 3.08 ± 0.087 | 2.82 ± 0.093 | 3.16 ± 0.045 | 2.99 ± 0.057
